Literature values as cited in paper PMC3479961.

Tests used:
Assay in all cases: surface plasmon resonance
[1] = molecular target: plasmin (Homo sapiens) (UniProt P00747)
[2] = molecular target: tPA (Homo sapiens) (UniProt P00750)
[3] = molecular target: plasminogen (Homo sapiens) (UniProt P00747)

UniProt P00750, sequence (P00750 36-562): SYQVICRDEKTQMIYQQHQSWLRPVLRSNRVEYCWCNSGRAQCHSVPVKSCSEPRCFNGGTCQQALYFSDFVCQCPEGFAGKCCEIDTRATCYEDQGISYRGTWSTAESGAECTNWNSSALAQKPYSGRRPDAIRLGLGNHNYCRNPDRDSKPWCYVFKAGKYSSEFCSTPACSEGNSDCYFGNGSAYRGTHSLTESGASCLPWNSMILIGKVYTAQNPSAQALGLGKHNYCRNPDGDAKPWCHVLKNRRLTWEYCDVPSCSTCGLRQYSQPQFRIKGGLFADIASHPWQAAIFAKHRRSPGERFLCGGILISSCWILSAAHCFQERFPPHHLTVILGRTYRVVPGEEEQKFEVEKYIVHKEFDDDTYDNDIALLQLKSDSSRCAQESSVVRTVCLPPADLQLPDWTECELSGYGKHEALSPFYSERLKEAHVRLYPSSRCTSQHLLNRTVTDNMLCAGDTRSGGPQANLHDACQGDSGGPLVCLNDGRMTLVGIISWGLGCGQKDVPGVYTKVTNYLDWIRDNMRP

S100A10 (from UniProt P60903)
Kd [1]: 360 nM
Kd [2]: 450 nM
Kd [3]: 1810 nM
